Assay [1] concerns the target T1, ATP5C1 (endogenous, HCT116 human colon cancer cells) (human, UniProt P36542 26-298).
T1 construct: Endogenous protein in cell or tumor lysates
T1 sequence: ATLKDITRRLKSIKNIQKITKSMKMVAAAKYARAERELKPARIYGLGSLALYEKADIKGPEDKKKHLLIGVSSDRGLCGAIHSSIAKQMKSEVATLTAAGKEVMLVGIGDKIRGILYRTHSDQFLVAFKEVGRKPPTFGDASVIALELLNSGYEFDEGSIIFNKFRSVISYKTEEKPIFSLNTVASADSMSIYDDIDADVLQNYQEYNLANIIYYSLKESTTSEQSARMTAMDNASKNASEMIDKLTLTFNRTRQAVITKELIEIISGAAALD
Description: interaction analysis by immunoblot in HCT116 xenograft tumor lysates of treated mice (FIG. 6A, bottom). Background: In western blotting, separated proteins are transferred to a membrane and probed.

Assay [2] deals with T2, ATP5A1 (endogenous, HCT116 human colon cancer cells) (human, UniProt P25705 44-553).
T2 construct: Endogenous protein in cell or tumor lysates
T2 sequence (P25705 44-553 limits assumed): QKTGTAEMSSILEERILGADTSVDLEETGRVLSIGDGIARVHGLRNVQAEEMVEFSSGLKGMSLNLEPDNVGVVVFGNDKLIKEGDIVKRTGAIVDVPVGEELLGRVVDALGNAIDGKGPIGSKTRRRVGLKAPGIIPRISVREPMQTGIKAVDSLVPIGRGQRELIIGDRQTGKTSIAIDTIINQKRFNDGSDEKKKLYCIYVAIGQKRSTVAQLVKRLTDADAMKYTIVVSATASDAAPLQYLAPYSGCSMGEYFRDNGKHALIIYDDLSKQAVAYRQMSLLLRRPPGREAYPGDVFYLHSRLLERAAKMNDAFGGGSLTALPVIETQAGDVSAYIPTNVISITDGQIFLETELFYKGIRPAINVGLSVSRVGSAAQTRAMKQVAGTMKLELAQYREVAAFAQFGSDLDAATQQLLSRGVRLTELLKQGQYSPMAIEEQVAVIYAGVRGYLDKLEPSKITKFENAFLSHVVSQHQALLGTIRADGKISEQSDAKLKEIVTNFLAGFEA
Described as above.

B1: rATRAM-GRA8-M/AS (6x His-tagged ATRAM-conjugated multifunctional GRA8 peptide) (peptide)
chain: GLAGLAGLLGLEGLLGLPLGLLEGLWLGLELEGNGLAGLAGLLGLEGLLGLPLGLLEGLWLGLELEGNGGATATTTTTTRGGYRFTVQTTQN
notes: also called rATRAM-G8-M/AS; 6x His-rATRAM-GRA8-M/AS; not shown: N-terminal 6x His tag from the pRSFDuet-1 vector
On to B1, for which the binding result in assay [1] and in assay [2] was “binds” throughout.

Source of the values: patent US20210188916A1 (INDUSTRY UNIVERSITY COOPERATION FOUNDATION HANYANG …, published 2021).
